Where a chain is given by its changes, count along the chain named. Read-outs that look alike come from different tables or passages of the source.
Experiments:
[1] = molecular target: T1, Sco5333 (Streptomyces coelicolor, UniProt Q9ADD4 1-301); assay: EMSA
T1 sequence: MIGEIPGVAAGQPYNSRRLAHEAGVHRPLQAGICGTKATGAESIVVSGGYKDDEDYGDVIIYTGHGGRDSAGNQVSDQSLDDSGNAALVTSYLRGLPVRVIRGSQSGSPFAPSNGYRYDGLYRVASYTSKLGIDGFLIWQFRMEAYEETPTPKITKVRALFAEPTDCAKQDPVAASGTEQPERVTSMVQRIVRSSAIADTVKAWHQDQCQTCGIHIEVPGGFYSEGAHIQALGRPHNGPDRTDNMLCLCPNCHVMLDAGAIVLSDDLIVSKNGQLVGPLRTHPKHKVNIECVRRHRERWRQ

[2] = molecular target: T1, Sco5333; assay: ITC
[3] = molecular target: T2, Sco5333 H228A (Streptomyces coelicolor, UniProt Q9ADD4 1-301, H228A); assay: EMSA
T2 sequence: T1 sequence with H228A

[4] = molecular target: MBD of mouse MeCP2 (mouse, UniProt Q9Z2D6 77-165); assay: EMSA
MBD of mouse MeCP2, sequence (Q9Z2D6 77-165): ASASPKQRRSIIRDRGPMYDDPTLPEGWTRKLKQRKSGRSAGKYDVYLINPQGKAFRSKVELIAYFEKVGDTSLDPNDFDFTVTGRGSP

[5] = molecular target: T3, Sco5333 Y50A (Streptomyces coelicolor, UniProt Q9ADD4 1-301, Y50A); assay: EMSA
T3 sequence: T1 sequence with Y50A

[6] = molecular target: T4, Sco5333 G32A (Streptomyces coelicolor, UniProt Q9ADD4 1-301, G32A); assay: EMSA
T4 sequence: T1 sequence with G32A

[7] = molecular target: T5, Sco5333 H253A (Streptomyces coelicolor, UniProt Q9ADD4 1-301, H253A); assay: EMSA
T5 sequence: T1 sequence with H253A

[8] = molecular target: T1, Sco5333; assay: ITC; remark: listed apart in the source
[9] = molecular target: T1, Sco5333; assay: ITC; remark: listed apart in the source
[10] = molecular target: the molecule itself; assay: SEC
[11] = molecular target: T6, MBD of human MeCP2 (human, UniProt P51608 77-166); assay: EMSA
T6 sequence (P51608 77-166): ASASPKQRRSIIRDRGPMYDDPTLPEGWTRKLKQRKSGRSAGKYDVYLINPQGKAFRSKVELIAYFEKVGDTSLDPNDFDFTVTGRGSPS

[12] = molecular target: T7, Tbis1 (Thermobispora bispora DSM 43833, UniProt D6YAC6 2-309); assay: EMSA
T7 sequence: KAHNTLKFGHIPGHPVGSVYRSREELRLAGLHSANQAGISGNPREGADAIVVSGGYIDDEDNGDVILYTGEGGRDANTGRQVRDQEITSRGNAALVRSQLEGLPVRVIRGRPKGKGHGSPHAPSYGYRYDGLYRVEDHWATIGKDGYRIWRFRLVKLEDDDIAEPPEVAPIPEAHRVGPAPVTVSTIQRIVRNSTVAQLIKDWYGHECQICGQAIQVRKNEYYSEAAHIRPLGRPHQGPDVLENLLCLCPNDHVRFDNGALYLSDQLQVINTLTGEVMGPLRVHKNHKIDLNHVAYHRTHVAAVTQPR

[13] = molecular target: T6, MBD of human MeCP2; assay: EMSA; remark: listed apart in the source
[14] = molecular target: T7, Tbis1; assay: EMSA; remark: listed apart in the source

B1: 55ntDcm1 bottom methylated (55nt-2/3) (dsDNA)
DNA 1: GAAACCCGACAGGACTATAAAGATACCAGGCGTTTCCCCCTGGAAGCTCCCTCGT
DNA 2: ACGAGGGAGCTTCCAGGGGGAAACGCCTGGTATCTTTATAGTCCTGTCGGGTTTC
modifications: 5mC at strand 2 pos 27
B1: binds [1].

B2: 54nt fully methylated (54nt-1/3) (dsDNA)
DNA 1: GAAACCCGACAGGACTATAAAGATACCGGCGTTTCCCCCTGGAAGCTCCCTCGT
DNA 2: ACGAGGGAGCTTCCAGGGGGAAACGCCGGTATCTTTATAGTCCTGTCGGGTTTC
modifications: 5mC at strand 1 pos 27 and strand 2 pos 27
In the case of B2, the Kd [2] is reported as 4.13 µM, the binding result [3] is reported as “binds” and the binding result [4] is reported as “binds”. B2: no binding [5]; no binding [6]; binds [7].

B3: 54nt top methylated (54nt-1/4) (dsDNA)
DNA 1: B2 DNA 1
DNA 2: B2 DNA 2
modifications: 5mC at strand 1 pos 27
In the case of B3, the binding result [4] is reported as “no binding” and the Kd [8] is reported as 3.14 µM.

B4: 54nt bottom methylated (54nt-2/3) (dsDNA)
DNA 1: B2 DNA 1
DNA 2: B2 DNA 2
modifications: 5mC at strand 2 pos 27
In the case of B4, the Kd [9] is reported as 1.47 µM and the binding result [4] is reported as “no binding”.

B5: Sco5333 (enzyme, Streptomyces coelicolor, UniProt Q9ADD4 1-301, looked up)
chain: T1 sequence
With B5 the “stoichiometry N” value [10] was 2.

B6: 66nt fully methylated (66nt-1/3) (dsDNA)
DNA 1: AAAAACGGCGTTTCCGGGTTCCATAGGCTCCGCACCGGTCTCTGATGACCAGGGCATCACATTTTT
DNA 2: AAAAATGTGATGCCCTGGTCATCAGAGACCGGTGCGGAGCCTATGGAACCCGGAAACGCCGTTTTT
modifications: 5mC at strand 1 pos 36 and strand 2 pos 30
B6 was tested, and the binding signal [11] was 64 fold preference over non-methylated and the binding signal [12] was > 100 fold preference over non-methylated.

B7: 66nt non-methylated (66nt-2/4) (dsDNA)
DNA 1: B6 DNA 1
DNA 2: B6 DNA 2
B7 was tested, and the binding signal [13] was 64 protein:DNA molar ratio for shift.

B8: 56nt top methylated (56nt-1/4) (dsDNA)
DNA 1: CGGCGTTTCCGGGTTCCATAGGCTCCGCTCCGGCCTCTGATGACCAGGGCATCACA
DNA 2: TGTGATGCCCTGGTCATCAGAGGCCGGAGCGGAGCCTATGGAACCCGGAAACGCCG
modifications: 5mC at strand 1 pos 31
B8: binds [14].

B9: 56nt bottom methylated (56nt-2/3) (dsDNA)
DNA 1: B8 DNA 1
DNA 2: B8 DNA 2
modifications: 5mC at strand 2 pos 25 (Table S3; methods print 24)
B9: binds [14].

B10: 56nt non-methylated (56nt-2/4) (dsDNA)
DNA 1: B8 DNA 1
DNA 2: B8 DNA 2
B10: no binding [14].

— article PMC4333417 (Nucleic Acids Research, 2015)
